A word on the Ki: it is a dissociation constant, usually derived from enzyme kinetics or from competition with a known ligand.

Holding throughout (test): competition EMSA
In data set [1] the target is T1, LexA (DinR) wild type (Bacillus subtilis, UniProt P31080 1-205).
T1 sequence: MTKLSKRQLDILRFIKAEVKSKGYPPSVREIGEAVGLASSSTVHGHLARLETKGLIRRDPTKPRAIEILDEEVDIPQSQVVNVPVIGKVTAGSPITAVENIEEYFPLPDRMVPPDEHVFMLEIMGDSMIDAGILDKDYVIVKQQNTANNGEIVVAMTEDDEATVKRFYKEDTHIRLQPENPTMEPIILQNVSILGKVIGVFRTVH

The target in data set [2] is T1, LexA (DinR) wild type. The source holds these as a separate data set.
For data set [3], the target named is T1, LexA (DinR) wild type. The source holds these as a separate data set.
Data set [4] deals with T1, LexA (DinR) wild type. The source holds these as a separate data set.
In data set [5] the target is T1, LexA (DinR) wild type. The source holds these as a separate data set.
Data set [6] addresses T1, LexA (DinR) wild type. This is another data set of the same source.
The target of data set [7] is T1, LexA (DinR) wild type. This is another data set of the same source.
Data set [8] deals with T1, LexA (DinR) wild type. This is another data set of the same source.
In data set [9] the target is T1, LexA (DinR) wild type. This is another data set of the same source.
Data set [10] has as its target T1, LexA (DinR) wild type. The source holds these as a separate data set.
Data set [11] concerns the target T1, LexA (DinR) wild type. This is another data set of the same source.
Data set [12] concerns the target T1, LexA (DinR) wild type. The source holds these as a separate data set.
Data set [13] addresses T1, LexA (DinR) wild type. This is another data set of the same source.
Data set [14] addresses T1, LexA (DinR) wild type. This is another data set of the same source.
Data set [15] has as its target T1, LexA (DinR) wild type. The source holds these as a separate data set.

Like-named read-outs stand apart in the source and are kept apart here.

B1: recA op C1G,T5C (dsDNA)
DNA 1: GGGGGGGGAACATGCGTTCGCCCCCC
DNA 2: GGGGGGCGAACGCATGTTCCCCCCCC
B1: affinity with LexA (DinR) wild type [1] was put at a Ki of 1 nM.

B2: recA op A6G (dsDNA)
DNA 1: GGGGGGCGAATGTGCGTTCGCCCCCC
DNA 2: GGGGGGCGAACGCACATTCGCCCCCC
With B2, the affinity with LexA (DinR) wild type [2] corresponds to a Ki of 6.4 nM. That is a single-digit nanomolar value.

B3: recA op C1A (dsDNA)
DNA 1: GGGGGGAGAATATGCGTTCGCCCCCC
DNA 2: GGGGGGCGAACGCATATTCTCCCCCC
Take B3: the Ki with LexA (DinR) wild type [3] worked out at 11.4 nM.

B4: recA op T5C,A6C (dsDNA)
DNA 1: GGGGGGCGAACCTGCGTTCGCCCCCC
DNA 2: GGGGGGCGAACGCAGGTTCGCCCCCC
Take B4: the Ki in the data set with LexA (DinR) wild type [4] turned out to be 0.56 nM.

B5: recA op C1A,T5C (dsDNA)
DNA 1: GGGGGGAGAACATGCGTTCGCCCCCC
DNA 2: GGGGGGCGAACGCATGTTCTCCCCCC
B5: the Ki with LexA (DinR) wild type [5] turned out to be 0.42 nM.

B6: recA op T7C (dsDNA)
DNA 1: GGGGGGCGAATACGCGTTCGCCCCCC
DNA 2: GGGGGGCGAACGCGTATTCGCCCCCC
As to B6, the Ki with LexA (DinR) wild type [6] was 7.8 nM.

B7: recA op C1G (dsDNA)
DNA 1: GGGGGGGGAATATGCGTTCGCCCCCC
DNA 2: GGGGGGCGAACGCATATTCCCCCCCC
The molecule B7 gave a Ki with LexA (DinR) wild type [7] of 53 nM.

B8: recA op T5C,T7A (dsDNA)
DNA 1: GGGGGGCGAACAAGCGTTCGCCCCCC
DNA 2: GGGGGGCGAACGCTTGTTCGCCCCCC
B8: the affinity with LexA (DinR) wild type [8], expressed as Ki, was 0.62 nM. That is a sub-nanomolar value.

B9: recA op T5C,A6T (dsDNA)
DNA 1: GGGGGGCGAACTTGCGTTCGCCCCCC
DNA 2: GGGGGGCGAACGCAAGTTCGCCCCCC
In turn, B9 yielded a Ki with LexA (DinR) wild type [9] of 0.49 nM.

B10: recA op A6T (dsDNA)
DNA 1: GGGGGGCGAATTTGCGTTCGCCCCCC
DNA 2: GGGGGGCGAACGCAAATTCGCCCCCC
With B10, the affinity with LexA (DinR) wild type [10] corresponds to a Ki of 11.5 nM.

B11: recA op G2A,T5C (dsDNA)
DNA 1: GGGGGGCAAACATGCGTTCGCCCCCC
DNA 2: GGGGGGCGAACGCATGTTTGCCCCCC
In turn, B11 yielded a Ki with LexA (DinR) wild type [11] of 5.2 nM.

B12: recA op A6C (dsDNA)
DNA 1: GGGGGGCGAATCTGCGTTCGCCCCCC
DNA 2: GGGGGGCGAACGCAGATTCGCCCCCC
For the molecule B12, the Ki with LexA (DinR) wild type [12] amounted to 20 nM.

B13: recA op T7A (dsDNA)
DNA 1: GGGGGGCGAATAAGCGTTCGCCCCCC
DNA 2: GGGGGGCGAACGCTTATTCGCCCCCC
As for B13, the Ki with LexA (DinR) wild type [13] worked out at 17.1 nM.

B14: recA op T5C (dsDNA)
DNA 1: GGGGGGCGAACATGCGTTCGCCCCCC
DNA 2: GGGGGGCGAACGCATGTTCGCCCCCC
As to B14, the Ki with LexA (DinR) wild type [14] was determined as 0.22 nM.

B15: recA op T5C,G8A,C9T (preferred) (dsDNA)
DNA 1: GGGGGGCGAACATATGTTCGCCCCCC
DNA 2: GGGGGGCGAACATATGTTCGCCCCCC
In the data set with LexA (DinR) wild type [15], B15 returned a Ki of 0.17 nM. This counts as sub-nanomolar.

The values above are taken from article PMC1277809.
